Data from paper PMC11601584, “The RNA receptor RIG-I binding synthetic oligodeoxynucleotide promotes pneumonia survival”.

Legend:
[1] = target: T1, rhRIG-I (236-925), CARD-less (Homo sapiens, UniProt O95786 236-925); test: fluorescence anisotropy; no nucleotide; 4 mM MgCl2; Kd only in figure; FP: 20 mM Hepes pH 7.5, 150 mM NaCl, 2 mM TCEP, 4 mM MgCl2, 5% glycerol, 25 C, 2.5 nM labeled oligo; EMSA: 30 min on ice, 6% native gel, 0.5x TBE; conditions: protein: recombinant; tags: N-terminal His-tag, removed by TEV; label: 5' FAM on strand 1; blunt
T1 sequence: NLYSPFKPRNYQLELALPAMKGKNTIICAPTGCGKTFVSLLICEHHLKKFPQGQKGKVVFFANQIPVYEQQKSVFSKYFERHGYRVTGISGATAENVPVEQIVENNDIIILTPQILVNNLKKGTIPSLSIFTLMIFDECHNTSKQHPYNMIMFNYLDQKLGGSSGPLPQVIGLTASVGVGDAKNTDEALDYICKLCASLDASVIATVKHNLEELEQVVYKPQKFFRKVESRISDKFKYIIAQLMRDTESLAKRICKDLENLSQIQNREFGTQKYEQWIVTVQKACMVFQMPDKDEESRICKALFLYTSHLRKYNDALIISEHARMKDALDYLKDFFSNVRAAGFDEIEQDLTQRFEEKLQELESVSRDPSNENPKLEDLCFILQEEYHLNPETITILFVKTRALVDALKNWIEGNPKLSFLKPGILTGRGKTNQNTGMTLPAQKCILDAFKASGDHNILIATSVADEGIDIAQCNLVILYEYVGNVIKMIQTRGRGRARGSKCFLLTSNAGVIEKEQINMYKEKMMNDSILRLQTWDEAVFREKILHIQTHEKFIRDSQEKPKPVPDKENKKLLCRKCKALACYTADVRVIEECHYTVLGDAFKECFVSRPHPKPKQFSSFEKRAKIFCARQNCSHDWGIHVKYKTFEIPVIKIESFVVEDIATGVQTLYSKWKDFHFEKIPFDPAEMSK

[2] = target: T1, rhRIG-I (236-925), CARD-less; test: EMSA; ODN stock 2.5 uM, protein 0-32 uM, on ice; FP: 20 mM Hepes pH 7.5, 150 mM NaCl, 2 mM TCEP, 4 mM MgCl2, 5% glycerol, 25 C, 2.5 nM labeled oligo; EMSA: 30 min on ice, 6% native gel, 0.5x TBE; conditions: protein: recombinant; tags: N-terminal His-tag, removed by TEV; 25-mer described as palindromic; partly self-complementary
[3] = target: T1, rhRIG-I (236-925), CARD-less; test: fluorescence anisotropy; no nucleotide; 4 mM MgCl2; affinity similar to RNA, Kd only in figure; FP: 20 mM Hepes pH 7.5, 150 mM NaCl, 2 mM TCEP, 4 mM MgCl2, 5% glycerol, 25 C, 2.5 nM labeled oligo; EMSA: 30 min on ice, 6% native gel, 0.5x TBE; conditions: protein: recombinant; tags: N-terminal His-tag, removed by TEV; label: 5' FAM; 25-mer described as palindromic; partly self-complementary

B1: 12-mer 5'ppp dsRNA (dsRNA)
RNA 1: CAUGUGGAGCCC
RNA 2: GGGCUCCACAUG
modifications: 5' triphosphate on strand 2
B1: binds [1].

B2: ODN M362, biotinylated (ssDNA)
DNA: TCGTCGTCGTTCGAACGACGTTGAT
modifications: complete phosphorothioate backbone
B2: binds [2].

B3: ODN M362, FAM (ssDNA)
DNA: TCGTCGTCGTTCGAACGACGTTGAT
modifications: complete phosphorothioate backbone
B3: binds [3].
